Assay results: the supplement of paper PMC9732359
± gives the uncertainty stated by the source.

Experiment: protein stability index of a GFP-peptide fusion (yeast GPS) (PSI 1-4); higher = more stable; sorted into four equal gates, so the index is relative within each strain
In short: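 For each peptide, the protein stability index sums the read frequency in every gate after multiplying it by the gate number. Read frequencies came from plasmids that were PCR-amplified from each gate and Illumina-sequenced, with reads assigned to strains by barcodes. The gates were four equal bins of GFP/Cherry fluorescence ratio applied to mid-log yeast in leucine-free medium carrying a pooled library of tiled 17-residue yeast protein peptides fused downstream of GFP on a Cherry-expressing plasmid.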

Sequence	protein stability index (doa10∆)	protein stability index (pdr5∆)	protein stability index (san1∆)	protein stability index (ubr1∆)
ILSSLYLLSIWVKKFKW [CYT1]	2.22 ± 0.091	1.5 ± 0.069	1.77 ± 0.089	1.3 ± 0.055
TIYNLQHHVTDADKLSF [YML031W/NDC1]	1.94 ± 0.04	2.33 ± 0.053	1.98 ± 0.061	2.06 ± 0.04
AARKAEKAKSAGTQSSK [RPL24A]	3.13 ± 0.099	3.11 ± 0.068	3.22 ± 0.082	3.29 ± 0.043
QIPTVSSPLGFEETKLS [SIR4]	3.06 ± 0.12	3.05 ± 0.17	2.63 ± 0.14	2.9 ± 0.081
IAKFERSEEEVTKLNVL [YIL149C/MLP2]	3.4 ± 0.13	3.46 ± 0.093	3.31 ± 0.051	3.4 ± 0.069
DYYYEDAGSNQYYVTQH [SWI1]	3.15 ± 0.1	3.34 ± 0.082	3.09 ± 0.14	3.22 ± 0.095
TPEKDLFIGLFTRPLFV [YCS4]	1.54 ± 0.084	1.32 ± 0.079	1.96 ± 0.27	1.45 ± 0.096
ILSTTLDPTDDEGHVLK [SIN4]	2.58 ± 0.15	2.64 ± 0.11	3.01 ± 0.14	3 ± 0.12
TAAEKKERLTKEAAAIA [RPL8B]	2.15 ± 0.072	2.25 ± 0.09	1.91 ± 0.11	2.33 ± 0.05
IADSTHVKRITKIAQSQ [ECM29]	1.86 ± 0.097	1.71 ± 0.059	1.3 ± 0.12	1.38 ± 0.044
CVEISHISKIIGLDTQQ [RPN6]	2.38 ± 0.17	–	–	–
RTAKAYLKVSEEEIKKF [PRP8]	2.98 ± 0.057	3.11 ± 0.075	3.12 ± 0.053	3.26 ± 0.049
WCAGAGTAADTEAVTQL [PUP1]	3.16 ± 0.24	2.94 ± 0.23	2.78 ± 0.21	–
CLQDALDAIDDFIQLKQ [SSN2]	2.73 ± 0.081	2.6 ± 0.056	2.2 ± 0.063	2.92 ± 0.06
TFLPSYMKFSNKYLELC [RRI2]	2.25 ± 0.052	2.35 ± 0.052	2.37 ± 0.073	2.37 ± 0.04
VGLVMFSQFWYWFPLAH [RPN2]	1.52 ± 0.078	1.39 ± 0.072	1.66 ± 0.17	1.41 ± 0.051
KMYSDDTLKDISTSFCF [BRN1]	3.36 ± 0.086	3.33 ± 0.067	3.42 ± 0.039	3.22 ± 0.067
ALEFVSLLLSSVKESTG [SRB4]	1.26 ± 0.046	1.61 ± 0.043	1.4 ± 0.11	1.24 ± 0.048
GHVKPVRCVNCSKSIPK [RPS26A]	2.8 ± 0.1	2.7 ± 0.11	2.16 ± 0.19	3.06 ± 0.14
LDRISSYTAFSRLTLLL [PRP8]	1.86 ± 0.047	1.59 ± 0.044	1.93 ± 0.068	1.95 ± 0.035
TELSNKETTIEKLSSEI [YIL149C/MLP2]	3.03 ± 0.073	2.96 ± 0.097	3.21 ± 0.072	3.13 ± 0.051
GNDTISKFYNMKQPYVF [SSN2]	3.12 ± 0.12	3.05 ± 0.11	3.2 ± 0.057	3.2 ± 0.065
TDIEEGMRVGVDRSKYN [RPT1]	3.13 ± 0.14	3.34 ± 0.27	3.07 ± 0.1	3.13 ± 0.15
TRDEETTKLAFLVEYEG [SIR4]	3.02 ± 0.14	3.06 ± 0.095	–	2.96 ± 0.13
LEPFLLMLEDTDGDSIL [BRR2]	2.71 ± 0.071	3.06 ± 0.089	3.05 ± 0.073	3.1 ± 0.05

Sequence	protein stability index (doa10∆)	protein stability index (pdr5∆)	protein stability index (san1∆)	protein stability index (ubr1∆)
LQQICRVRNKDIRKFLD [RPL9A]	2.13 ± 0.074	2.2 ± 0.074	2.04 ± 0.1	2.31 ± 0.054
ASYVNIPVIALTDLDSP [RPS0A]	1.92 ± 0.063	1.81 ± 0.064	1.61 ± 0.17	1.88 ± 0.046
RNMAEEFEYDDEPDEQG [CYT1]	3.12 ± 0.073	3.17 ± 0.061	3.17 ± 0.064	3.09 ± 0.059
FDRLVAGQIPTGWNAKT [FAS2]	2.15 ± 0.18	–	–	–
QKGITSYAVSPYAQKPL [QCR8]	2.92 ± 0.13	3.05 ± 0.14	2.92 ± 0.063	3.13 ± 0.089
GRENFVYANNPEVSDDG [SIR3]	3.05 ± 0.096	3.08 ± 0.085	2.8 ± 0.1	3.03 ± 0.068
LFEIVSNADTNQNSDMK [SRB8]	2.51 ± 0.29	2.87 ± 0.29	2.85 ± 0.16	–
WNWAKQSLLSLYFEIIH [FAS2]	1.7 ± 0.06	1.46 ± 0.057	1.76 ± 0.15	1.4 ± 0.072
DQKTGRAKSSSHLFNEY [RPN4]	2.85 ± 0.25	3.22 ± 0.24	3.39 ± 0.12	3.46 ± 0.15
VPHYNRLDSYKVIEQPI [RPL25]	1.8 ± 0.095	2.21 ± 0.11	2.02 ± 0.11	2.21 ± 0.11
CWPKDSRMRLIRQDVNL [PRP8]	2.52 ± 0.081	2.68 ± 0.09	2.72 ± 0.067	2.76 ± 0.12
RDVSDDVFDTLATYCPR [GRR1]	3.02 ± 0.084	3.04 ± 0.071	3.05 ± 0.056	3.22 ± 0.06
TQDESEIKDAETSCDNY [SMC4]	2.26 ± 0.083	2.62 ± 0.073	3.4 ± 0.056	2.98 ± 0.053
HMDYDGNIVKEFENKFQ [YMR129W/POM152]	3.28 ± 0.069	3.33 ± 0.082	3.36 ± 0.049	3.22 ± 0.055
YLHQNWVLHRDLKPANI [SSN3]	2.23 ± 0.12	2.74 ± 0.13	2.72 ± 0.23	2.38 ± 0.14
GRTPNISNGTINIQKKL [SIR4]	2.37 ± 0.058	2.64 ± 0.048	2.58 ± 0.063	2.16 ± 0.041
STEETTANTGTIGKRRT [TAF14]	3.07 ± 0.13	3.27 ± 0.1	3.38 ± 0.088	2.77 ± 0.12
RISGLIYEEVRAVLKSF [HHF1]	3.33 ± 0.14	3.13 ± 0.2	3.16 ± 0.11	–
DIDDILKKGEQKTQELN [ISW2]	3.31 ± 0.22	3.21 ± 0.1	3.44 ± 0.099	3.56 ± 0.092
SMDVDDKNSGVKSEVDV [ITC1]	2.52 ± 0.076	1.64 ± 0.039	1.78 ± 0.094	2.5 ± 0.043
LTSDLVYFGDENKVMLP [RRI2]	3.21 ± 0.093	3.34 ± 0.089	3.07 ± 0.076	3.03 ± 0.068
DDLIAEENPIMQTALRR [QCR7]	–	3.24 ± 0.22	2.92 ± 0.15	3.06 ± 0.13
EDFPIDTWANGETIKSN [SEM1]	3.55 ± 0.14	3.61 ± 0.19	3.13 ± 0.2	3.15 ± 0.15
IIHFHSHPEKRMIPPRM [SSN3]	3.09 ± 0.07	2.95 ± 0.067	3.06 ± 0.065	3.13 ± 0.049
MDQDNNNHNDSNRLHPP [GRR1]	2.73 ± 0.062	2.79 ± 0.062	2.69 ± 0.064	2.9 ± 0.04

Sequence	protein stability index (doa10∆)	protein stability index (pdr5∆)	protein stability index (san1∆)	protein stability index (ubr1∆)
DESDSENDIEIKGPEFK [YLR335W/NUP2]	2.88 ± 0.11	2.92 ± 0.21	3.03 ± 0.13	2.96 ± 0.095
DELELEDAIHIALLTLK [PRE8]	3.04 ± 0.076	3.11 ± 0.065	3.07 ± 0.062	3.15 ± 0.087
SLEALIDLCHDFPHLTP [YCS4]	2.31 ± 0.042	2.35 ± 0.036	2.56 ± 0.049	2.25 ± 0.031
QTKSNGTAGGNTFGSSS [YJL041W/NSP1]	3.28 ± 0.063	2.84 ± 0.064	2.96 ± 0.055	3.22 ± 0.053
DRFKYRSVDRAGRKFKS [POP4]	3.04 ± 0.2	3.24 ± 0.18	3.52 ± 0.097	3.55 ± 0.16
TPSFSFGAKSDENKAGA [YJL041W/NSP1]	3.51 ± 0.28	3.19 ± 0.16	3.17 ± 0.15	–
INDFKKIGRENENENED [POP5]	–	3.38 ± 0.22	2.76 ± 0.19	2.49 ± 0.27
SIPPATIETFNEAALVV [RPB5]	3.09 ± 0.18	2.46 ± 0.15	2.02 ± 0.11	3.15 ± 0.13
SPSTSANVPSTATTGKR [RPN4]	2.16 ± 0.18	2.2 ± 0.1	2.62 ± 0.11	2.65 ± 0.096
KDALSNSILSVRDPWSI [SRB2]	3.27 ± 0.07	3.41 ± 0.087	3.1 ± 0.06	3.36 ± 0.093
NESSSNTTVISDKQRRL [DIS3]	3.15 ± 0.086	3.21 ± 0.086	2.98 ± 0.061	3.05 ± 0.058
LPSHIISTSDVTRIINS [RPL4A]	2.43 ± 0.033	2.66 ± 0.038	2.41 ± 0.035	2.55 ± 0.029
VTKGGTVENPLRNWEEL [PRP28]	2.55 ± 0.073	2.71 ± 0.1	3.33 ± 0.055	2.89 ± 0.057
LGVPRIKEIINASKVIS [RPO31]	3.03 ± 0.1	2.59 ± 0.2	1.49 ± 0.12	1.71 ± 0.24
GNYIKTENATENDQQDN [LIN1]	2.51 ± 0.098	2.62 ± 0.071	2.05 ± 0.13	2.61 ± 0.086
LTCSLYELYINKLTILG [IRR1]	1.36 ± 0.032	1.36 ± 0.04	1.34 ± 0.059	1.48 ± 0.045
SFYRVEKIKKINYHQYI [SSN2]	1.18 ± 0.081	1.36 ± 0.06	1.39 ± 0.2	1.62 ± 0.1
QQLQVLARYLKMDLDNG [FAS2]	1.9 ± 0.13	2.04 ± 0.089	2.78 ± 0.079	2.31 ± 0.051
RRILAAAAAAAAAVSGN [SSN3]	1.41 ± 0.12	1.26 ± 0.1	1.06 ± 0.26	1.59 ± 0.094
ELLLTTLSVSHGINLQN [SSN2]	1.89 ± 0.044	2.04 ± 0.043	1.76 ± 0.081	2.19 ± 0.059
PKNLLKKFIEISDVKIQ [PRP8]	1.76 ± 0.064	1.88 ± 0.067	1.76 ± 0.13	2.26 ± 0.05
LQVLKRERDGIKEDIEK [SMC1]	3.06 ± 0.23	2.85 ± 0.12	3.15 ± 0.066	2.75 ± 0.23
AISTDKINPFGFEQVKI [RRI2]	2.75 ± 0.056	2.94 ± 0.05	2.72 ± 0.061	2.86 ± 0.061
ERVSPTDIEEGMRVGVD [RPT1]	3.16 ± 0.14	3.4 ± 0.14	2.83 ± 0.096	3.16 ± 0.12
GSGKSNMMDAISFVLGV [SMC1]	3.18 ± 0.073	3.17 ± 0.074	3.24 ± 0.058	3.32 ± 0.043
